Experimental data taken from publication PMC8466238, “Development of High Affinity Calcitonin Analog Fragments Targeting Extracellular Domains of Calcitonin Family Receptors” (Biomolecules, 2021).

T1: FITC-labeled AC413(6–25) with Y25P mutation (Y25P (stands in the printed letters), FITC-(Ahx) (aminohexanoic acid) on the N-terminus; C-terminal amide)
T1 construct: residues 6-25 of AC413, an antagonistic amylin peptide analog, with Y25P; peptide probe of the FP assay with the AMY receptor ECDs; also called FITC-AC413(6–25) Y25P; source: synthetic peptide (Genscript, HPLC-purified)
T1 peptide: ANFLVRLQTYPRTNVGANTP

B1: RAMP2-CTR ECD fusion protein (hRAMP2.55–140-(GSA)3-hCTR.34–141-H6) (receptor, human)
chain: GGTVKNYETAVQFCWNHYKDQMDPIEKDWCDWAMISRPYSTLRDCLEHFAELFDLGFPNPLAERIIFETHQIHFANCSLVQPTFSDGSAGSAGSAIEPKPFLYVVGRKKMMDAQYKCYDRMQQLPAYQGEGPYCNRTWDGWLCWDDTPAGVLSYQFCPDYFPDFDPSEKVTKYCDEKGVWFKHPENNRTWSNYTMCNAFTPEK
notes: human receptor activity-modifying protein 2 (RAMP2), extracellular domain, residues 55-140; linker, printed as (GSA)3; human calcitonin receptor (CTR), extracellular domain, residues 34-141; Secreted from a pHLsec-based vector; also called AMY receptor 2 ECD; RAMP2 ECD-CTR ECD fusion; source: HEK293T, transiently transfected, secreted to cell culture media, purified (IMAC, SEC)
B2: RAMP1-CTR ECD fusion protein (hRAMP1.24–111-(GSA)3-hCTR.34–141-H6) (receptor, human)
chain: TTACQEANYGALLRELCLTQFQVDMEAVGETLWCDWGRTIRSYRELADCTWHMAEKLGCFWPNAEVDRFFLAVHGRYFRSCPISGRAVGSAGSAGSAIEPKPFLYVVGRKKMMDAQYKCYDRMQQLPAYQGEGPYCNRTWDGWLCWDDTPAGVLSYQFCPDYFPDFDPSEKVTKYCDEKGVWFKHPENNRTWSNYTMCNAFTPEK
notes: human receptor activity-modifying protein 1 (RAMP1), extracellular domain, residues 24-111; linker, printed as (GSA)3; human calcitonin receptor (CTR), extracellular domain, residues 34-141; Secreted from a pHLsec-based vector; also called AMY receptor 1 ECD; RAMP1 ECD-CTR ECD fusion; source: HEK293T, transiently transfected, secreted to cell culture media, purified (IMAC, SEC)
B3: RAMP3-CTR ECD fusion protein (hRAMP3.25–112-(GSA)3-hCTR.34–141-H6) (receptor, human)
chain: AGGCNETGMLERLPLCGKAFADMMGKVDVWKWCNLSEFIVYYESFTNCTEMEANVVGCYWPNPLAQGFITGIHRQFFSNCTVDRVHLEGSAGSAGSAIEPKPFLYVVGRKKMMDAQYKCYDRMQQLPAYQGEGPYCNRTWDGWLCWDDTPAGVLSYQFCPDYFPDFDPSEKVTKYCDEKGVWFKHPENNRTWSNYTMCNAFTPEK
notes: human receptor activity-modifying protein 3 (RAMP3), extracellular domain, residues 25-112; linker, printed as (GSA)3; human calcitonin receptor (CTR), extracellular domain, residues 34-141; Secreted from a pHLsec-based vector; also called AMY receptor 3 ECD; RAMP3 ECD-CTR ECD fusion protein; source: HEK293S GnTI-, transiently transfected (PEI), secreted to cell culture media, purified (IMAC, SEC)

Target: T1, FITC-labeled AC413(6–25) with Y25P …
Assay: fluorescence polarisation; saturation binding: FITC-labeled peptide probe (10 nM) with rising receptor ECD concentrations; receptor ECD concentration at half of the maximal anisotropy
Settings: both partners purified

Row | Binder | receptor ECD concentration that produced a half of the maximal anisotropy with the peptide probe
1 | B1 | 67 nM
2 | B2 | 77 nM
3 | B3 | 252 nM
